± gives the standard deviation of the averaged measurements.

Experimental findings from the supplement of paper PMC11246515 are described below.

This data set in a line: total protein half-life in vivo (active degradation + dilution); higher = more stable protein.
The mark [1] stands for this setting: E. coli NCM3722 delta-clpP delta-lon delta-hslV, growth: N-lim chemostat, doubling time 6 h.
[2] abbreviates: E. coli NCM3722 delta-clpP, growth: N-lim chemostat, doubling time 6 h.
The mark [3] stands for this setting: E. coli NCM3722 delta-hslV, growth: N-lim chemostat, doubling time 6 h.
Setting [4] is: E. coli NCM3722 delta-smpB, growth: N-lim chemostat, doubling time 6 h.
Setting [5] is: wild type E. coli NCM3722, growth: C-lim chemostat, doubling time 3 h.
The mark [6] stands for this setting: wild type E. coli NCM3722, growth: C-lim chemostat, doubling time 6 h.
The mark [7] stands for this setting: wild type E. coli NCM3722, growth: C-lim chemostat, doubling time 12 h.
Setting [8] is: wild type E. coli NCM3722, growth: N-lim chemostat, doubling time 6 h.
Setting [9] is: wild type E. coli NCM3722, growth: N-lim chemostat, doubling time 12 h.
Setting [10] is: wild type E. coli NCM3722, growth: P-lim chemostat, doubling time 6 h.
[11] abbreviates: wild type E. coli NCM3722, growth: P-lim chemostat, doubling time 12 h.
[12] abbreviates: E. coli NCM3722 delta-lon, growth: N-lim chemostat, doubling time 6 h.

Turning to “MSSEKLYSPLKVGAITAANRIFMAPLTRLRSIEPGDIPTPLMAEYYRQRASAGLIISEATQISAQAKGYAGAPGIHSPEQIAAWKKITAGVHAENGHMAVQLWHTGRISHASLQPGGQAPVAPSALSAGTRTSLRDENGQAIRVETSMPRALELEEIPGIVNDFRQAIANAREAGFDLVELHSAHGYLLHQFLSPSSNHRTDQYGGSVENRARLVLEVVDAGIEEWGADRIGIRVSPIGTFQNTDNGPNEEADALYLIEQLGKRGIAYLHMSEPDWAGGEPYTDAFREKVRARFHGPIIGAGAYTVEKAETLIGKGLIDAVAFGRDWIANPDLVARLQRKAELNPQRAESFYGGGAEGYTDYPTL”, the “total protein half-life in vivo” value is, setting by setting: under setting [1], 5.08 ± 0.17 h; under setting [2], 2.14 ± 0.038 h; under setting [3], 1.51 ± 0.027 h; under setting [4], 1.5 ± 0.061 h; under setting [5], 2.13 ± 0.48 h; under setting [6], 2.98 ± 0.53 h. The “total protein half-life in vivo” value by setting is: under setting [7], 3.17 ± 0.57 h; under setting [8], 1.66 ± 0.12 h; under setting [9], 2.097 ± 0.015 h; under setting [10], 1.55 ± 0.16 h; under setting [11], 2.85 ± 1.7 h.
Consider “MSDMAERLALHEFTENAYLNYSMYVIMDRALPFIGDGLKPVQRRIVYAMSELGLNASAKFKKSARTVGDVLGKYHPHGDSACYEAMVLMAQPFSYRYPLVDGQGNWGAPDDPKSFAAMRYTESRLSKYSELLLSELGQGTADWVPNFDGTLQEPKMLPARLPNILLNGTTGIAVGMATDIPPHNLREVAQAAIALIDQPKTTLDQLLDIVQGPDYPTEAEIITSRAEIRKIYENGRGSVRMRAVWKKEDGAVVISALPHQVSGARVLEQIAAQMRNKKLPMVDDLRDESDHENPTRLVIVPRSNRVDMDQVMNHLFATTDLEKSYRINLNMIGLDGRPAVKNLLEILSEWLVFRRDTVRRRLNYRLEKVLKRLHILEGLLVAFLNIDEVIEIIRNEDEPKPALMSRFGLTETQAEAILELKLRHLAKLEEMKIRGEQSELEKERDQLQGILASERKMNNLLKKELQADAQAYGDDRRSPLQEREEAKAMSEHDMLPSEPVTIVLSQMGWVRSAKGHDIDAPGLNYKAGDSFKAAVKGKSNQPVVFVDSTGRSYAIDPITLPSARGQGEPLTGKLTLPPGATVDHMLMESDDQKLLMASDAGYGFVCTFNDLVARNRAGKALITLPENAHVMPPVVIEDASDMLLAITQAGRMLMFPVSDLPQLSKGKGNKIINIPSAEAARGEDGLAQLYVLPPQSTLTIHVGKRKIKLRPEELQKVTGERGRRGTLMRGLQRIDRVEIDSPRRASSGDSEE [P0AFI2]”, for which the “total protein half-life in vivo” value was found to be 5.85 ± 0.14 h under setting [1]; 6.82 ± 1.4 h under setting [2]; 3.67 ± 0.47 h under setting [3]; 3.93 ± 0.34 h under setting [12]; 3.2 ± 0.17 h under setting [4]; 2.44 ± 0.17 h under setting [5]. In addition, the “total protein half-life in vivo” value was 3.745 ± 0.031 h under setting [6]; 5.99 ± 0.32 h under setting [7]; 3.42 ± 0.22 h under setting [8]; 5.17 ± 0.29 h under setting [9]; 2.947 ± 0.025 h under setting [10]; 5.43 ± 0.56 h under setting [11].
“MPLIIVVAGIALLLLLTIKIKLNTFVSLIIVSIAVAIASGMDLSKVVTSVESGLGGTLGHIGLIFGFGVMLGRLLADAGGAQRIALTMLNYFGKNKLDWAVVCSAFIVGIALFFEVGLILLVPILFAIAREAKISPMFMCVPMLSGLLVAHGFLPPHPGPTVIAREYGADVGLVLIYGIIVGIPTFILCGPVLNKFCQRIIPDAFKKEGNIASLGATRRFSESEMPGFGISFLTAMLPVILMAVVTIIQMTHAKSAADSGLFYNVILFLGNSTIAMLISLLFAIYTMGLGRGKTIPDLMDSCGKAIAGIAGLLLIIGGGGAFKQVLIDSGVGQYISTLVSGMDINPILMAWGVAAFLRICLGSATVAAISTAGLVIPLLAVHPNTNLALITLATGAGSCICSHVNDASFWMIKDFFGLTTKETLLSWTLMSTLLSISGLIFILLASLVL”: the “total protein half-life in vivo” value reads like this: under setting [4], 6.77 h; under setting [5], 3.22 h.
As to “MVKKAIVTAMAVISLFTLMGCNNRAEVDTLSPAQAAELKPMPQSWRGVLPCADCEGIETSLFLEKDGTWVMNERYLGAREEPSSFASYGTWARTADKLVLTDSKGEKSYYRAKGDALEMLDREGNPIESQFNYTLEAAQSSLPMTPMTLRGMYFYMADAATFTDCATGKRFMVANNAELERSYLAARGHSEKPVLLSVEGHFTLEGNPDTGAPTKVLAPDTAGKFYPNQDCSSLGQ”, the “total protein half-life in vivo” value reads like this: under setting [1], 5.34 ± 0.088 h; under setting [2], 5.68 ± 0.11 h; under setting [3], 5.99 ± 0.23 h; under setting [12], 6.787 ± 0.0084 h; under setting [4], 5.976 ± 0.058 h; under setting [5], 3.13 ± 0.2 h. Also, the “total protein half-life in vivo” value was 6.4 ± 0.79 h under setting [6]; 10.7 ± 0.25 h under setting [7]; 6.083 ± 0.0085 h under setting [8]; 11.5 ± 0.38 h under setting [9]; 5.63 ± 0.41 h under setting [10].
On to “MSDTNYAVIYDLHSHTTASDGCLTPEALVHRAVEMRVGTLAITDHDTTAAIAPAREEISRSGLALNLIPGVEISTVWENHEIHIVGLNIDITHPLMCEFLAQQTERRNQRAQLIAERLEKAQIPGALEGAQRLAQGGAVTRGHFARFLVECGKASSMADVFKKYLARGKTGYVPPQWCTIEQAIDVIHHSGGKAVLAHPGRYNLSAKWLKRLVAHFAEHHGDAMEVAQCQQSPNERTQLAALARQHHLWASQGSDFHQPCPWIELGRKLWLPAGVEGVWQLWEQPQNTTEREL”, for which the “total protein half-life in vivo” value under setting [1] amounted to 4.2 ± 0.46 h; the “total protein half-life in vivo” value under setting [2] was determined as 2.69 ± 0.6 h; the “total protein half-life in vivo” value under setting [3] came out at 2 h; the “total protein half-life in vivo” value under setting [12] stood at 4.05 ± 1.8 h; the “total protein half-life in vivo” value under setting [4] worked out at 1.76 ± 0.21 h; the “total protein half-life in vivo” value under setting [5] is 1.42 ± 0.78 h. Also, the “total protein half-life in vivo” value by setting is: under setting [6], 3.06 h; under setting [7], 5.96 h; under setting [8], 2.24 ± 0.19 h; under setting [9], 2.55 ± 0.59 h; under setting [10], 2.72 h; under setting [11], 4.57 ± 0.45 h.
For the sequence “MTTIVDSNLPVARPSWDHSRLESRIVHLGCGAFHRAHQALYTHHLLESTDSDWGICEVNLMPGNDRVLIENLKKQQLLYTVAEKGAESTELKIIGSMKEALHPEIDGCEGILNAMARPQTAIVSLTVTEKGYCADAASGQLDLNNPLIKHDLENPTAPKSAIGYIVEALRLRREKGLKAFTVMSCDNVRENGHVAKVAVLGLAQARDPQLAAWIEENVTFPCTMVDRIVPAATPETLQEIADQLGVYDPCAIACEPFRQWVIEDNFVNGRPDWDKVGAQFVADVVPFEMMKLRMLNGSHSFLAYLGYLGGYETIADTVTNPAYRKAAFALMMQEQAPTLSMPEGTDLNAYATLLIERFSNPSLRHRTWQIAMDGSQKLPQRLLDPVRLHLQNGGSWRHLALGVAGWMRYTQGVDEQGNAIDVVDPMLAEFQKINAQYQGADRVKALLGLSGIFADDLPQNADFVGAVTAAYQQLCERGARECVAAL”, the “total protein half-life in vivo” value reads like this: under setting [1], 4.94 ± 2.6 h; under setting [2], 3.08 ± 0.24 h; under setting [3], 3.228 ± 0.01 h; under setting [12], 3.47 ± 0.17 h; under setting [4], 2.96 ± 0.24 h; under setting [5], 2.91 ± 0.27 h. Besides, the “total protein half-life in vivo” value by setting is: under setting [6], 4.32 ± 0.52 h; under setting [7], 7.28 ± 2.2 h; under setting [8], 3.33 ± 0.044 h; under setting [9], 6.19 ± 2.3 h; under setting [10], 5.28 ± 0.23 h; under setting [11], 9.27 ± 0.21 h.
“MQKRAIYPGTFDPITNGHIDIVTRATQMFDHVILAIAASPSKKPMFTLEERVALAQQATAHLGNVEVVGFSDLMANFARNQHATVLIRGLRAVADFEYEMQLAHMNRHLMPELESVFLMPSKEWSFISSSLVKEVARHQGDVTHFLPENVHQALMAKLA [P0A6I6]”: the “total protein half-life in vivo” value is, setting by setting: under setting [1], 4.49 h; under setting [2], 5.11 ± 0.59 h; under setting [12], 5.58 h; under setting [4], 4.82 ± 1 h; under setting [6], 6.01 ± 0.25 h; under setting [7], 10.8 h. Moreover, the “total protein half-life in vivo” value was 4.62 h under setting [8], 7.33 ± 0.35 h under setting [9], 6.14 ± 0.072 h under setting [10] and 12.9 ± 1 h under setting [11].
